Key:
FANCJ K52R = target: T1, FANCJ K52R (UniProt Q9BX63 1-1249, K52R); assay: EMSA; 10/40/70 nM protein, 5 nM DNA, no ATP; EMSA: 15 mM Na-phosphate pH 7.4, 45 mM NaCl, 3% glycerol, 40 mM Tris-HCl pH 7.4, 25 mM KCl, 100 ng/ul BSA, 2 mM DTT, 0.1 mM EDTA; 30 min at 25 C; 5% PAGE in 1x; conditions: protein: recombinant; tags: N-terminal Flag; label: 5'-FAM on strand 1
T1 sequence: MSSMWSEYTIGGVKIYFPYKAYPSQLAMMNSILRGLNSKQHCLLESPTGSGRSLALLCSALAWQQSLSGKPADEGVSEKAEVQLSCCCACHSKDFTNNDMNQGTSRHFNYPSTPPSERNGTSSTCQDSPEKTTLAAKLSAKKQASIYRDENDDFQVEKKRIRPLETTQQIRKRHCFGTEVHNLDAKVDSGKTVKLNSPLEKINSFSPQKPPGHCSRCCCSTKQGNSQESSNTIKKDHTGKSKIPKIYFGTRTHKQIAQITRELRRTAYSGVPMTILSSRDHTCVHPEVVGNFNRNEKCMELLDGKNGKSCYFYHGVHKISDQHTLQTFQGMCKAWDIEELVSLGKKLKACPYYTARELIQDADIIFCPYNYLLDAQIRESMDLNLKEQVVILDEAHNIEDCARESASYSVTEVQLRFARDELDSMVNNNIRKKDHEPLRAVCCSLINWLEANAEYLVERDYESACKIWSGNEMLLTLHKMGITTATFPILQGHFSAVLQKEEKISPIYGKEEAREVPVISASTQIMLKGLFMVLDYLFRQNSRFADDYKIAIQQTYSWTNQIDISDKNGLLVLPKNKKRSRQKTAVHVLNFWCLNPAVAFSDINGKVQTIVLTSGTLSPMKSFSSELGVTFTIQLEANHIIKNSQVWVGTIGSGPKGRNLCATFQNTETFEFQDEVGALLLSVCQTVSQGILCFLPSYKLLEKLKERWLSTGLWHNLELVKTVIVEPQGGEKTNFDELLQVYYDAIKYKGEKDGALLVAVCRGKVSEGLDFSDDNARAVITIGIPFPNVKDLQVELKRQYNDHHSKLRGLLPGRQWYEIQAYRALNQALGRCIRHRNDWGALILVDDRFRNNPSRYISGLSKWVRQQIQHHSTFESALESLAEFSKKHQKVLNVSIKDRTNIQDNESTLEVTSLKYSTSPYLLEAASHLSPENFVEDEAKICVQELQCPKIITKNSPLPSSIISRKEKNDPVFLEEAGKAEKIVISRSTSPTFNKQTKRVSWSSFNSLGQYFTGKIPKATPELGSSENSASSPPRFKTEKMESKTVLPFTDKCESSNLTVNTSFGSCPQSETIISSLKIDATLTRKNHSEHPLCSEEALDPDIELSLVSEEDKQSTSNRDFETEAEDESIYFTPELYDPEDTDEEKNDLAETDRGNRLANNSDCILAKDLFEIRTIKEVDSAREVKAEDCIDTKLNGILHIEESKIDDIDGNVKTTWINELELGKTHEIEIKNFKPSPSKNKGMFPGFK

FANCJ M299I = target: T2, FANCJ M299I (UniProt Q9BX63 1-1249, M299I); assay: EMSA; 10/40/70 nM protein, 5 nM DNA, no ATP; wild-type level of binding; EMSA: 15 mM Na-phosphate pH 7.4, 45 mM NaCl, 3% glycerol, 40 mM Tris-HCl pH 7.4, 25 mM KCl, 100 ng/ul BSA, 2 mM DTT, 0.1 mM EDTA; 30 min at 25 C; 5% PAGE in 1x; conditions: protein: recombinant; tags: N-terminal Flag; label: 5'-FAM on strand 1
T2 sequence: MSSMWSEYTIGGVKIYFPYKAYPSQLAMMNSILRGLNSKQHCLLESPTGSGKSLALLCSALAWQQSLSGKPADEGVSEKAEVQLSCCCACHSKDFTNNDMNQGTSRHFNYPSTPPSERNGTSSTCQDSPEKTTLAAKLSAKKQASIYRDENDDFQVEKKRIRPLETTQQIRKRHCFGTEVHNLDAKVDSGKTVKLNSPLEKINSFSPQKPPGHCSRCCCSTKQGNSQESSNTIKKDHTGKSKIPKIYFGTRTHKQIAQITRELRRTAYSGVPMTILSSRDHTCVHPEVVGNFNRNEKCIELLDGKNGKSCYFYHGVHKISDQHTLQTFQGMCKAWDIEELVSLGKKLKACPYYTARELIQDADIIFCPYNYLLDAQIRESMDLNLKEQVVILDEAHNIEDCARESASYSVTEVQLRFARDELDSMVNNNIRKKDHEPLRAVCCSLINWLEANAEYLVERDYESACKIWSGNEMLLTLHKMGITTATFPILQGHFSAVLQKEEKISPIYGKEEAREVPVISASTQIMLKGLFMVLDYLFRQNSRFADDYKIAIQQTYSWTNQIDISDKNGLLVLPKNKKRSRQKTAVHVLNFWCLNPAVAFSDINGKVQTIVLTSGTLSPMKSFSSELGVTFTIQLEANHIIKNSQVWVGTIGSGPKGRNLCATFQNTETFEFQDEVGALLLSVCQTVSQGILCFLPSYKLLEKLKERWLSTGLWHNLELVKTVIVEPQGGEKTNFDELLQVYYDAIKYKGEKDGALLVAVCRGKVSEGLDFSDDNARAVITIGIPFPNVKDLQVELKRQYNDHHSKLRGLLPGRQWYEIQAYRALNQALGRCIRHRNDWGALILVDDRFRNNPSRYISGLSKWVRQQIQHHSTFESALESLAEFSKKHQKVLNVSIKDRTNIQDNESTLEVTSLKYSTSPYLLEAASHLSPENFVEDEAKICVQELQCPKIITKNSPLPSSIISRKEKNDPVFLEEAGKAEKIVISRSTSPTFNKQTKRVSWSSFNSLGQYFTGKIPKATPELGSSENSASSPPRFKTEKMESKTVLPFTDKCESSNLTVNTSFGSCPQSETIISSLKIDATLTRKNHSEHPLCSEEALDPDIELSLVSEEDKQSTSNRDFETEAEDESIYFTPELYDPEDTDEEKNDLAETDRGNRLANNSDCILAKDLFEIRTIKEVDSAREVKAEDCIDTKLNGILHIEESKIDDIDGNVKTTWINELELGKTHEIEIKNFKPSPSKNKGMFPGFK

B1: Y-structure (XO1/sDO1) (dsDNA)
DNA 1: GACGCTGCCGAATTCTACCAGTGCCTTGCTAGGACATCTTTG
DNA 2: TTTTTTTTTTTTTTTTTTTTTTTTTTTTTTTTTTTTGGTAGAATTCGGCAGCGT
B1: binds (FANCJ K52R); binds (FANCJ M299I).

From publication PMC7316351, “Cancer-associated mutations in the iron-sulfur domain of FANCJ affect G-quadruplex metabolism”
